Data as given in patent publication US20220389118A1 (Chugai, published 2022).
Substitutions are numbered along the chain they refer to.

T1: human FcγRIIa type R extracellular domain with C-terminal His tag (human, UniProt P12318 34-217)
T1 construct: extracellular domain; also called FcγRIIaR; FcγRIIa(R)
T1 sequence (looked up): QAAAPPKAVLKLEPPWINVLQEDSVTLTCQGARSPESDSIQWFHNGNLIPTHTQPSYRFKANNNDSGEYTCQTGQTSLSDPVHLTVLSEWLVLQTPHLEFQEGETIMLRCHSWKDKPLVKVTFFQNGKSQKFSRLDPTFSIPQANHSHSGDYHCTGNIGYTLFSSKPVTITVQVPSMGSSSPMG

T2: human FcγRIIa type H extracellular domain with C-terminal His tag (human, UniProt P12318 34-217)
T2 construct: extracellular domain; also called FcγRIIaH; FcγRIIa(H)
T2 sequence (looked up): T1 sequence (looked up) with R134H

T3: human FcγRIIb extracellular domain with C-terminal His tag (human, UniProt P31994 43-217)
T3 construct: extracellular domain
T3 sequence (looked up): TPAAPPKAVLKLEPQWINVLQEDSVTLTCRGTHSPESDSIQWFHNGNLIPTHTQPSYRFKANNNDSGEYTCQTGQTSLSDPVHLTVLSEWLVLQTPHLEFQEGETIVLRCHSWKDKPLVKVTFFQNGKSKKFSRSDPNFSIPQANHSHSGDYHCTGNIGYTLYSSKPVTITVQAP

T4: human FcγRIIb extracellular domain with C-terminal His tag (human, UniProt P31994 43-217)
T4 construct: extracellular domain; also called FcgRIIb
T4 sequence (looked up): T3 sequence (looked up)

B1: IL6R-BP510/IL6R-L (antibody, human IgG1, kappa)
heavy: QVQLQESGPGLVKPSETLSLTCAVSGHSISHDHAWSWVRQPPGEGLEWIGFISYSGITNYNPSLQGRVTISRDNSKNTLYLQMNSLRAEDTAVYYCARSLARTTAMDYWGEGTLVTVSSASTKGPSVFPLAPSSKSTSGGTAALGCLVKDYFPEPVTVSWNSGALTSGVHTFPAVLQSSGLYSLSSVVTVPSSSLGTQTYICNVNHKPSNTKVDKKVEPKSCDKTHTCPPCPAPELLGDDSVFLFPPKPKDTLMISRTPEVTCVVIDVAEEDGPVKFNWYVDGVEVHNAKTKPREEQYNSTYRVVSVLTVLHQDWLNGKEYKCKVSNKALPRPIEKTISKAKGQPREPQVYTLPPSRDELTKNQVSLTCLVKGFYPSDIAVEWESNGQPENNYKTTPPVLDSDGSFFLYSKLTVDKSRWQQGNVFSCSVMHEALHNHYTQESLSLSP
light: not shown
notes: copies: 2 + 2
B2: IL6R-BP498/IL6R-L (antibody, human IgG1, kappa)
heavy: B1 heavy with E235D, P274E, P398L
light: not shown
notes: copies: 2 + 2
B3: IL6R-BP503/IL6R-L (antibody, human IgG1, kappa)
heavy: B1 heavy with E235D, P274E, Y298D, A329G, P398M
light: not shown
notes: copies: 2 + 2
B4: IL6R-BP549/IL6R-L (antibody, human IgG1, kappa)
heavy: B1 heavy with I266V, A269G, P274E
light: not shown
notes: copies: 2 + 2
B5: IL6R-BP502/IL6R-L (antibody, human IgG1, kappa)
heavy: B1 heavy with E235D, P274E, Y298D, A329G
light: not shown
notes: copies: 2 + 2
B6: IL6R-BP491/IL6R-L (antibody, human IgG1, kappa)
heavy: B1 heavy with P274E, Y298D
light: not shown
notes: also called IL6R-491/IL6R-L; copies: 2 + 2
B7: IL6R-BP511/IL6R-L (antibody, human IgG1, kappa)
heavy: B1 heavy with Y298D
light: not shown
notes: copies: 2 + 2
B8: IL6R-BP489/IL6R-L (antibody, human IgG1, kappa)
heavy: B1 heavy with E235D, P274E, Y298D, P398M
light: not shown
notes: copies: 2 + 2
B9: IL6R-BP508/IL6R-L (antibody, human IgG1, kappa)
heavy: B1 heavy with E235D, Y298D, R332A
light: not shown
notes: copies: 2 + 2
B10: IL6R-BP487/IL6R-L (antibody, human IgG1, kappa)
heavy: B1 heavy with E235D, P274E, P398M
light: not shown
notes: copies: 2 + 2
B11: IL6R-BP505/IL6R-L (antibody, human IgG1, kappa)
heavy: B1 heavy with E235D, P274D, R332A
light: not shown
notes: copies: 2 + 2
B12: IL6R-BP497/IL6R-L (antibody, human IgG1, kappa)
heavy: B1 heavy with E235D, P274E, A329G
light: not shown
notes: copies: 2 + 2
B13: IL6R-BP496/IL6R-L (antibody, human IgG1, kappa)
heavy: B1 heavy with E235D, P274E, Y298D, R332A
light: not shown
notes: copies: 2 + 2
B14: IL6R-BP499/IL6R-L (antibody, human IgG1, kappa)
heavy: B1 heavy with E235D, P274E, Y298D, P398L
light: not shown
notes: copies: 2 + 2
B15: IL6R-BP554/IL6R-L (antibody, human IgG1, kappa)
heavy: B1 heavy with P274D
light: not shown
notes: copies: 2 + 2
B16: IL6R-BP509/IL6R-L (antibody, human IgG1, kappa)
heavy: B1 heavy with E235D, P274D, Y298D, R332A
light: not shown
notes: copies: 2 + 2
B17: IL6R-BP438/IL6R-L (antibody, human IgG1, kappa)
heavy: B1 heavy with E235D, I266V, P274E, I334T
light: not shown
notes: copies: 2 + 2
B18: IL6R-BP558/IL6R-L (antibody, human IgG1, kappa)
heavy: B1 heavy with A269G, P274D
light: not shown
notes: copies: 2 + 2
B19: IL6R-BP121/IL6R-L (antibody, human IgG1, kappa)
heavy: B1 heavy with D239G, I266V, A269S, E270H, G273P, P274E, K328Q, R332A
light: not shown
notes: IgG1 type
B20: IL6R-BP136/IL6R-L (antibody, human IgG1, kappa)
heavy: B1 heavy with D239G, I266V, A269S, E270H, G273P, P274E, K328A, R332A
light: not shown
notes: IgG1 type
B21: IL6R-BP110/IL6R-L (antibody, human IgG1, kappa)
heavy: B1 heavy with D239G, I266V, A269S, E270N, G273P, P274E, R332A
light: not shown
notes: IgG1 type
B22: IL6R-2B128/IL6R-L (antibody, human IgG1, kappa)
heavy: B1 heavy with D239G, I266V, A269S, E270H, G273P, P274E, Y298D, R332A
light: not shown
notes: IgG1 type
B23: IL6R-2B002/IL6R-L (antibody, human IgG1, kappa)
heavy: B1 heavy with E235D, D239G, I266V, A269S, E270H, G273P, P274E, R332A
light: not shown
notes: IgG1 type
B24: IL6R-BP142/IL6R-L (antibody, human IgG1, kappa)
heavy: B1 heavy with D239G, I266V, A269S, E270H, G273P, P274E, K328N, R332A
light: not shown
notes: IgG1 type
B25: IL6R-BP112/IL6R-L (antibody, human IgG1, kappa)
heavy: B1 heavy with D239G, I266V, A269S, E270H, P274E, R332A
light: not shown
notes: IgG1 type
B26: IL6R-BP912/IL6R-L (antibody, human IgG1, kappa)
heavy: B1 heavy with D239G, I266V, A269S, E270H, G273P, P274E
light: not shown
notes: IgG1 type
B27: IL6R-2B169/IL6R-L (antibody, human IgG1, kappa)
heavy: B1 heavy with D239G, I266V, A269S, E270H, G273P, P274E, V325I, R332A
light: not shown
notes: IgG1 type

target: T5, human FcγRIa extracellular domain with C-terminal His tag (human, UniProt P12314 16-292); test: SPR (Biacore)
T5 construct: extracellular domain
T5 sequence (P12314 16-292): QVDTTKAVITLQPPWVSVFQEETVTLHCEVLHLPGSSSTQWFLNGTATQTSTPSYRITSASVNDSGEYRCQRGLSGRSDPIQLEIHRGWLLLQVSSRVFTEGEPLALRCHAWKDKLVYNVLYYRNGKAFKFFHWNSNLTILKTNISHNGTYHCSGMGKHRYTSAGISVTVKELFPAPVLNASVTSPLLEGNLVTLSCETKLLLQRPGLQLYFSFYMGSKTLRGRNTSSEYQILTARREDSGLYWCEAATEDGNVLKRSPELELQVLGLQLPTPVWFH

| Kd [nM] | Binder |
| --- | --- |
| 6 | B1 |
| 1.3 | B2 |
| 1.2 | B3 |
| 18 | B4 |
| 2.1 | B5 |
| 5.3 | B6 |
| 6 | B7 |
| 1.3 | B8 |
| 1.4 | B9 |
| 1.2 | B10 |
| 1.1 | B11 |
| 2.1 | B12 |
| 1.2 | B13 |
| 1.2 | B14 |
| 8 | B15 |
| 1.1 | B16 |

target: T1, human FcγRIIa type R extracellular …; test: SPR (Biacore)

| Kd [nM] | Binder |
| --- | --- |
| 180 | B17 |
| 51 | B2 |
| 57 | B3 |
| 330 | B18 |
| 570 | B4 |
| 110 | B5 |
| 120 | B6 |
| 180 | B7 |
| 43 | B8 |
| 540 | B9 |
| 39 | B10 |
| 430 | B11 |
| 85 | B12 |
| 470 | B13 |
| 49 | B14 |
| 520 | B16 |

target: T2, human FcγRIIa type H extracellular …; test: SPR (Biacore)

| Kd [nM] | Binder |
| --- | --- |
| 1600 | B17 |
| 4000 | B1 |
| 930 | B2 |
| 860 | B3 |
| 4900 | B18 |
| 1300 | B5 |
| 2200 | B6 |
| 4300 | B7 |
| 870 | B8 |
| 840 | B10 |
| 960 | B12 |
| 3700 | B13 |
| 1000 | B14 |
| 2300 | B15 |

target: T3, human FcγRIIb extracellular domain with …; test: SPR (Biacore)

| Kd [nM] | Binder |
| --- | --- |
| 3.8 | B1 |
| 1.7 | B2 |
| 1.7 | B3 |
| 9 | B18 |
| 16 | B4 |
| 3.7 | B5 |
| 3 | B6 |
| 3.5 | B7 |
| 1 | B8 |
| 21 | B9 |
| 1.2 | B10 |
| 21 | B11 |
| 4.1 | B12 |
| 18 | B13 |
| 1.5 | B14 |
| 18 | B16 |

target: T3, human FcγRIIb extracellular domain with …; test: SPR (Biacore), ratio of KDs

| KD(IIaH)/KD(IIb) | KD(IIaR)/KD(IIb) | Binder |
| --- | --- | --- |
| 564 | 30.8 | B2 |
| 503 | 33.2 | B3 |
| 696 | 35.9 | B4 |
| 352 | 29.5 | B5 |
| 724 | 38.8 | B6 |
| 1240 | 50.6 | B7 |
| 870 | 42.8 | B8 |
| 962 | 26 | B9 |
| 730 | 33.8 | B10 |
| 514 | 20 | B11 |
| 236 | 21 | B12 |
| 201 | 25.5 | B13 |
| 685 | 33.8 | B14 |
| 444 | 29.2 | B16 |

target: T1, human FcγRIIa type R extracellular …; test: SPR (Biacore), parent IL6R-B3/IL6R-L

| KD(IIaR) parent/KD(IIaR) altered polypeptide | Binder |
| --- | --- |
| 21.7 | B2 |
| 19.4 | B3 |
| 1.9 | B4 |
| 10.1 | B5 |
| 9.3 | B6 |
| 6.3 | B7 |
| 25.7 | B8 |
| 2 | B9 |
| 28.3 | B10 |
| 2.6 | B11 |
| 12.9 | B12 |
| 2.3 | B13 |
| 22.3 | B14 |
| 2.1 | B16 |

target: T3, human FcγRIIb extracellular domain with …; test: SPR (Biacore), parent IL6R-B3/IL6R-L

| KD(IIb) parent/KD(IIb) altered polypeptide | Binder |
| --- | --- |
| 1880 | B2 |
| 1810 | B3 |
| 196 | B4 |
| 840 | B5 |
| 1020 | B6 |
| 891 | B7 |
| 3100 | B8 |
| 149 | B9 |
| 2700 | B10 |
| 145 | B11 |
| 764 | B12 |
| 168 | B13 |
| 2120 | B14 |
| 174 | B16 |

target: T4, human FcγRIIb extracellular domain with …; test: SPR (Biacore), antibody captured, FcγR as analyte

| KD(IIb) of parent polypeptide/KD(IIb) of altered polypeptide [fold vs IL6R-B3/IL6R-L] | Kd [nM] | Binder |
| --- | --- | --- |
| 2.8 |  | B19 |
| 3.9 | 800 | B20 |
| 2.1 |  | B21 |
| 2.1 |  | B22 |
| 3.3 |  | B23 |
| 2.6 |  | B24 |
| 9.7 |  | B25 |
| 2.1 |  | B26 |
| 2.6 |  | B27 |
